Laboratory results reported in US20260043817A1 (UNIVERSITY OF TOKYO, published 2026).

Biological target: T1, HA-tagged Fluc-DM (Fluc-HA-DM) (firefly, UniProt P08659 1-550 = luciferase)
T1 construct: Model misfolded (structurally abnormal) protein, co-expressed in HeLa cells; Derived from the Addgene plasmid FlucDM-HA-GFP11-N1; also called R188Q/R261Q double mutant of firefly luciferase; aggregated mutant luciferase; not shown: HA tag
Assay: co-immunoprecipitation with anti-FLAG M2 gel from HeLa lysates, immunoblot

B1: FLAG-LONRF2-LonSBm (P5A) (enzyme)
chain: MSPEPVPPPPPPQCPGCDRAEPIAQRLEEGDEAFRAGDYEMAAELFRSMLAGLAQPDRGLCLRLGDALARAGRLPEALGAFRGAARLGALRPEELEELAGGLVRAVGLRDRPLSAENPGGEPEAPGEGGPAPEPRAPRDLLGCPRCRRLLHKPVTLPCGLTVCKRCVEPGPARPQVRRVNVVLSGLLEKCFPAECRLRRLAGQARSLQRQQQPEAALLRCDQALELAPDDNSLLLLRAELYLTMKNYEQALQDASAACQNEPLLIKGHQVKAQALSGLGRSKEVLKEFLYCLALNPECNSVKKEAQKVMCEVLFSATANVHENLTSSIQSRLKAQGHSHMNAQALLEEGDAGSSENSSEKSDMLGNTNSSVLYFILGLHFEEDKKALESILPTAPSAGLKRQFPDDVEDAPDLNAPGKIPKKDLSLQRSPNSETEESQGLSLDVTDFECALCMRLLFEPVTTPCGHTFCLKCLERCLDHAPHCPLCKDKLSELLASRNFNITVLAEELIFRYLPDELSDRKRIYDEEMSELSNLTRDVAIFVCAMAFATVPCALHVFEPRYRLMIRRCMETGTKRFGMCLSAEHAGLSEYGCMLEIKDVRTFADGSSVVDAIGISRFRVLSHRHRDGYNTADIEYLEDEKVEGPEYEELAALHDSVHQQSVSWFASLQDRMKEQILSHFGVMPDREPEPQSNPSGPAWSWWILAVLALERKAQLAILGMTSLKERLLAIRRILVIITRKMNSRQELANARERNN
notes: not shown: FLAG tag
binding result: no binding
